We go through two molecules from article PMC7615141, “ADAMTS-7 modulates atherosclerotic plaque formation by degradation of TIMP-1” (Circulation research, 2023).

The labels stand for the following.
B2: ADAMTS-7-FLAG (enzyme, human, UniProt Q9UKP4 28-1686, looked up)
chain: APGPAPGRATEGRAALDIVHPVRVDAGGSFLSYELWPRALRKRDVSVRRDAPAFYELQYRGRELRFNLTANQHLLAPGFVSETRRRGGLGRAHIRAHTPACHLLGEVQDPELEGGLAAISACDGLKGVFQLSNEDYFIEPLDSAPARPGHAQPHVVYKRQAPERLAQRGDSSAPSTCGVQVYPELESRRERWEQRQQWRRPRLRRLHQRSVSKEKWVETLVVADAKMVEYHGQPQVESYVLTIMNMVAGLFHDPSIGNPIHITIVRLVLLEDEEEDLKITHHADNTLKSFCKWQKSINMKGDAHPLHHDTAILLTRKDLCAAMNRPCETLGLSHVAGMCQPHRSCSINEDTGLPLAFTVAHELGHSFGIQHDGSGNDCEPVGKRPFIMSPQLLYDAAPLTWSRCSRQYITRFLDRGWGLCLDDPPAKDIIDFPSVPPGVLYDVSHQCRLQYGAYSAFCEDMDNVCHTLWCSVGTTCHSKLDAAVDGTRCGENKWCLSGECVPVGFRPEAVDGGWSGWSAWSICSRSCGMGVQSAERQCTQPTPKYKGRYCVGERKRFRLCNLQACPAGRPSFRHVQCSHFDAMLYKGQLHTWVPVVNDVNPCELHCRPANEYFAEKLRDAVVDGTPCYQVRASRDLCINGICKNVGCDFEIDSGAMEDRCGVCHGNGSTCHTVSGTFEEAEGLGYVDVGLIPAGAREIRIQEVAEAANFLALRSEDPEKYFLNGGWTIQWNGDYQVAGTTFTYARRGNWENLTSPGPTKEPVWIQLLFQESNPGVHYEYTIHREAGGHDEVPPPVFSWHYGPWTKCTVTCGRGVQRQNVYCLERQAGPVDEEHCDPLGRPDDQQRKCSEQPCPARWWAGEWQLCSSSCGPGGLSRRAVLCIRSVGLDEQSALEPPACEHLPRPPTETPCNRHVPCPATWAVGNWSQCSVTCGEGTQRRNVLCTNDTGVPCDEAQQPASEVTCSLPLCRWPLGTLGPEGSGSGSSSHELFNEADFIPHHLAPRPSPASSPKPGTMGNAIEEEAPELDLPGPVFVDDFYYDYNFINFHEDLSYGPSEEPDLDLAGTGDRTPPPHSHPAAPSTGSPVPATEPPAAKEEGVLGPWSPSPWPSQAGRSPPPPSEQTPGNPLINFLPEEDTPIGAPDLGLPSLSWPRVSTDGLQTPATPESQNDFPVGKDSQSQLPPPWRDRTNEVFKDDEEPKGRGAPHLPPRPSSTLPPLSPVGSTHSSPSPDVAELWTGGTVAWEPALEGGLGPVDSELWPTVGVASLLPPPIAPLPEMKVRDSSLEPGTPSFPTPGPGSWDLQTVAVWGTFLPTTLTGLGHMPEPALNPGPKGQPESLSPEVPLSSRLLSTPAWDSPANSHRVPETQPLAPSLAEAGPPADPLVVRNAGWQAGNWSECSTTCGLGAVWRPVRCSSGRDEDCAPAGRPQPARRCHLRPCATWHSGNWSKCSRSCGGGSSVRDVQCVDTRDLRPLRPFHCQPGPAKPPAHRPCGAQPCLSWYTSSWRECSEACGGGEQQRLVTCPEPGLCEEALRPNTTRPCNTHPCTQWVVGPWGQCSGPCGGGVQRRLVKCVNTQTGLPEEDSDQCGHEAWPESSRPCGTEDCEPVEPPRCERDRLSFGFCETLRLLGRCQLPTIRTQCCRSCSPPSHGAPSRGHQRVARR
notes: ADAMTS-7, human; also called ADAMTS-7-FLAG-cryptate; TS7-FLAG-Crypt; source: HEK293, transfected, in lysate

In the experiment “ADAMTS-7-FLAG” the target is B2. As to the kind of experiment: AlphaScreen or HTRF; competition in the time-resolved FRET assay: untagged recombinant TIMP-1 (400 or 800 ng) added to ADAMTS-7-FLAG and TIMP-1-HA in lysates; 665/620 nm ratio; seven independent experiments. The conditions noted are these: one partner purified. (In general: Bead proximity is the source of the signal in Alpha formats.)

Experiment [1] deals with T1, TIMP-1-HA (tissue inhibitor of metalloproteinases 1 with HA tag) (human, UniProt P01033 24-207).
T1 construct: source: HEK293, transfected, in lysate; also in the supernatant
As to the kind of experiment: AlphaScreen or HTRF; the pair ADAMTS-7-FLAG and TIMP-1-HA in the competition experiment (lysates; 0 ng untagged TIMP-1 as reference); 665/620 nm ratio; seven independent experiments. The conditions noted are these: partners not purified.

For experiment [2], the target named is T1, TIMP-1-HA (tissue inhibitor of …). As to the kind of experiment: AlphaScreen or HTRF; time-resolved FRET; lysates of HEK293 cells overexpressing ADAMTS-7-FLAG and TIMP-1-HA incubated with anti-FLAG-cryptate and anti-HA-d2 antibodies; excitation 337 nm; 665/620 nm ratio as readout. The conditions noted are these: partners not purified.

T1 sequence (P01033 24-207): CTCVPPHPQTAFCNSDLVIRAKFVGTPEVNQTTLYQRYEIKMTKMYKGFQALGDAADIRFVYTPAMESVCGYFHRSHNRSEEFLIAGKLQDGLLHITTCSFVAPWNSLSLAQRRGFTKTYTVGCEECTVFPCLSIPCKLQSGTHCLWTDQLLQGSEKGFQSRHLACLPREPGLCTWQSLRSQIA

B1: untagged, recombinant TIMP-1 (natural protein)
chain: not shown
notes: The supplier may be named in the Supplemental Material; also called untagged TIMP-1; source: recombinant, untagged
For B1, in the experiment with ADAMTS-7-FLAG, the “FRET ratio (665/620) of ADAMTS-7-FLAG with TIMP-1-HA in the presence of 400 ng untagged TIMP-1” value was 4420 665/620 ratio and the “FRET ratio (665/620) of ADAMTS-7-FLAG with TIMP-1-HA in the presence of 800 ng untagged TIMP-1” value is 3570 665/620 ratio.

On to B2, for which the “FRET ratio (665/620) with 0 ng untagged TIMP-1” value in experiment [1] is 4950 665/620 ratio. In experiment [2], the “FRET ratio (665/620)” value was 5480 665/620 ratio.
